Like-named read-outs stand apart in the source and are kept apart here.
Tests used:
Experiment in all cases: fluorescence anisotropy
IN deltaC (IN1-213) [1] = target: T1, IN deltaC (IN1-213) (HIV-1, UniProt P04585 1148-1360)
[2] = target: T2, IN catalytic core CC (IN50-213) (HIV-1, UniProt P04585 1197-1360)
[3] = target: T2, IN catalytic core CC (IN50-213); remark: listed apart in the source
IN deltaC (IN1-213) [4] = target: T1, IN deltaC (IN1-213); remark: listed apart in the source

B1: U5A/U5B (dsDNA)
DNA 1: GTGTGGAAAATCTCTAGCAGT
DNA 2: ACTGCTAGAGATTTTCCACAC
Kd (IN deltaC (IN1-213) [1]): 60 ± 4 nM | Kd [2]: 53 ± 13 nM | Kd [3]: 61 ± 10 nM | Kd (IN deltaC (IN1-213) [4]): 64 ± 8 nM

Reference: article PMC2887959
